The labels stand for the following.
T1: Peptide 3: Biotin-ATNMDSSHSIT (human)
T1 peptide: Biotin-ATNMDSSHSIT

B1: Negative control peptide: Biotin-AVEDRKPSGLN (peptide)
peptide: Biotin-AVEDRKPSGLN
B2: Peptide 1: Biotin-STDRIPATNMD (peptide)
peptide: Biotin-STDRIPATNMD
B3: VB1-008 monoclonal antibody (antibody, human IgG1, V domains shown)
VH: QVQLQELGPRLVRPSQTLILTCTVSGGSVSGDEYYWSWLRQTPGKGLEWIGYMSYRGSSYYSPSLQSRVTIAVDRSKNEFSLKLTSVTAADAAVYFCARKYCGGDCRSGFDIWGRGTMVTVAS
VL: YELTQPPSVSVSPGQKAFITCSGDNLGNKYVCWYQQKPGQSPVLVIYEDTKRPSGIPERFSASNSGNTATLTISGTQPIDEADYYCQAWDSRTEIFGTGTKVTVLS
notes: also called 17P2/C12

In experiment [1] the target is B3. Kind of experiment: peptide competition, flow cytometry on MDA-MB-435S cells. (In general: A flow cytometer gives signals particle by particle.)
The target in experiment [2] is B2. As to the kind of experiment: ELISA on peptide-coated plates.
In experiment [3] the target is B1. Kind of experiment: ELISA on peptide-coated plates.
In experiment [4] the target is T1, Peptide 3: Biotin-ATNMDSSHSIT
As to the kind of experiment: ELISA on peptide-coated plates, 75 µg/mL VB1-008.

Where no end group is shown, it is not given here. The star is where a group is joined. Biotin = O=C1N[C@H]2[C@H](CS[C@H]2CCCCC(=O)*)N1

For the molecule B1, the binding result in experiment [1] is listed as “no binding”.
Take B2: the binding result in experiment [1] is reported as “no binding”.
Turning to B3, the binding result in experiment [2] is “no binding (tested: 75 µg/mL VB1-008)”; in experiment [3], “no binding (tested: 75 µg/mL VB1-008)”; in experiment [4] it was “binds”.

The values are drawn from patent publication US20130217865A1 (VIVENTIA BIOTECHNOLOGIES, published 2013).
